Results reported in the nanobody polyreactivity screen of Harvey et al. (2022).

Assay: yeast display, Sf9 membrane polyspecificity reagent, FACS + sequencing; frameworks hold sequencing errors
How it was run: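 Galactose-induced (36–48 hours) yeast carrying a synthetic nanobody display library were exposed to 10% biotinylated, detergent-solubilized Sf9 membrane reagent at 4 °C for 1 hour. FACS followed streptavidin microbead enrichment, using low and high (top ~1%) gates for expression (anti-HA) and reagent binding (streptavidin). Colony PCR, MiSeq 2 × 250 sequencing and CDR-length filtering followed. Labels for polyreactivity reflect the gate of origin.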

Sequence	polyreactivity (PSR sort gate)
QVQLQESGGGLVQAGGSLCLSCAASGTIFFDGDMGWYRQAPGKEREFVAAINPGGSAYYADSVKGRLPLAAITHTVYLQMNSLKPEDTAVYYCAAKLFDVYGYYYWGQGTHVTVSS	low polyreactivity
QVQLQESGGGLVQAGGSLLLSCAASGTICDSGLMGWYRQAPGKERELVDVISSGGITNYADSVKGRYTISRDNAKNTVYMQMNSLKPEDTAVYWGQGPQVTVSS	low polyreactivity
QVQLQESGGGLVQAGGSLRLGCAASGNISDAGYMGWYRQAPGKEREFVAAIAAGSNTNYADSVKGRFTISRDNAKNTVYLQMNSLKPEDTAVFYCAVASYARVQYQYWGQGTQVTVNS	low polyreactivity
QVQLQESGGGLVQAGGSLRLGCAASGYISGFNEMGWYRQAPGKERELDAAITNGGISNYADSVKGRFTISRDNAKNTVYLQMNSLKPEDTAMYYCAAGDFDQSNHAYWGQDTQVTVSS	high polyreactivity
QVQLQESGGGLVQAGGSLRLRCAASRNNSGSSDLGWYHQAPGKEREFVASITSGGTTYYADSVKGRFTISRDNAKNTVYLQMNSLKPEDTAVYYCAVGDPADAEFGYWGQGTQVTVSS	low polyreactivity
QVQLQESGGGLVQAGGSLRLSCAARGNNSSYYRMGWYRQAPGQEREFVATIAVGGTTNYADSVKGRFTISRDNEKTTLYLQRNSLKPEDTAVCFCAANSTQYTWFDYWGQGTQVPVSS	low polyreactivity
QVQLQESGGGLVQAGGSLRLSCAASGNIFLGGDKGWYRQAPGKEREFVAAISDGTSTNYADSVKGRFTISRDNAKNTVYLQMNSLKPEDTAVYYCAAQYRYQRYSYAMEYWGQGTQVTVSS	high polyreactivity
QVQLQESGGGLVQAGGSLRLSCAASGNISSYYRMGWYRQAPGKEREFVATIAVGGTTNYADSVKGRFTISRDNAINTVFLQRNSLNTEDTAVCFCAANSTQYTWFDYWGQGTQVPVSS	low polyreactivity
QVQLQESGGGLVQAGGSLRLSCAASGNIVDADIMGWYRQAPGKERELVASITDGGSTNYADSEKGRFTICRDNAKNTVYLQMNSVKPEDTAVYYCAAMAYPDIPTSFDYDSEYFYWGQGTQVKVSS	low polyreactivity
QVQLQESGGGLVQAGGSLRLSCAASGPISRRSTMGWNRQAPGKERELVTAITRGTNTNYADSVKGRFTISRDNAKNTEYLQMNSLKPVDTAVYYCAAYGVLKPSRGDAVFHRYWGQGTQVTVSS	low polyreactivity
QVQLQESGGGLVQAGGSLRLSCAASGPISRRSTMGWYRQAPGKERELVTAITRGTNTNYADSVKGRFTISRDNAKNTEYLQMNSLKPVDTAVYYCAAYGVLNPSRGDAVFHRYWGQGTQVSVSS	low polyreactivity
QVQLQESGGGLVQAGGSLRLSCAASGSIFDGFNMGWNRQAPGKEREFVAAISYGASTYYADSVKGRFTVSRDNAKNCVYLQMNSLKPEDSAVYYCAVYDELYQVLVYWGRGTQVTVSS	low polyreactivity
QVQLQESGGGLVQAGGSLRLSCAASGSIFDGFNMGWYRQAPGKEREFVAAISYGASTYYADSVKGRFTVSRDNAKNSVYLQMNSLKPEATAVYYCAVYDELYHVLVYWGRGTQVTVSS	low polyreactivity
QVQLQESGGGLVQAGGSLRLSCAASGSIFDYVSMGWYRQAPGEERELVVTITLGSNTYYADSVKGRFTISSDIAKNTVYLQMNSLNPEDTAVYYCAASALWGYVYPYWGLGTQVTVSS	high polyreactivity
QVQLQESGGGLVQAGGSLRLSCAASGSIFDYVSMGWYRQAPREERELVVTITLGSNTYYADSVKGRFTISSDIGKNTVYLQMNSLNPEDTAVYYCAASALWGYVYPYWGLGTQVTVSS	high polyreactivity
QVQLQESGGGLVQAGGSLRLSCAASGSIFEELDMGWYRQAPGKEREFVAANGTGSTTYYADSVKGRFTISRDNAKNTVYLQMNSLKPEVTAVYYCAVTYSVYLPFRYWGQGTQVTVSS	high polyreactivity
QVQLQESGGGLVQAGGSLRLSCAASGSIFKVVDMGLYRQAPGKEREFVATNGEGGNTYSADSVKGRFTISRDNAKNTVYRQMNSLKPEATAVYFYAVVLGTSYRYTYWGQGTQVTVSS	low polyreactivity
QVQLQESGGGLVQAGGSLRLSCAASGSIFVSVTMGWYRQAPGKERELVASIGRGSTTNHADSVKGRFTISRDNAKNIVYLLMNSLKPEDTEVYYCAALESYGKYHGYWGQGTQVTVSS	low polyreactivity
QVQLQESGGGLVQAGGSLRLSCAASGSISADGAMGWYRQAPGKEREFAASVNWGTNTNYADSVKGRFTISRDNAKNTLYLQMNRLKPEDTAVYYCAVLPDWETRHDYWGHGTQVTVSS	low polyreactivity
QVQLQESGGGLVQAGGSLRLSCAASGSISRYYDMGLYRQAPGKEREFVAGISGGAITYYADSVKGRFTISRDNAKNTVYLQMNSLKPVDTAVYYCAADTGVYQYHSYWGQGTQVTVSS	low polyreactivity
QVQLQESGGGLVQAGGSLRLSCAASGSISRYYDMGWYRQAPGKELEFVAGISGGAITYYADSVKGRFTISRDNAKNTVYLQMNSLKPEDTAVYYCAADTGVYQYHSYWGQGTQVTVSS	low polyreactivity
QVQLQESGGGLVQAGGSLRLSCAASGSISSRDAMGWYRQAPGKEREFVATIASGTTTYYADSVKGSFTISRDNAENTVYLQTNSLKPEDTAVYYCAAPTIQIYPFYYWGQGTQVTVSS	high polyreactivity

Sequence	polyreactivity (PSR sort gate)
QVQLQESGGGLVQAGGSLRLSCAASGSNFDTPTMGWYRQAPGKERELVASIAYDDNTYYADSVKGRFTISRYNAKNTVYLQMNSLKPGDTAVYYCAVTDRIYYYFVYWGQGTRVTVSS	high polyreactivity
QVQLQESGGGLVQAGGSLRLSCAASGSNFDTPTMGWYRQAPGKERELVASSAYDDNTYYADSVKGRFTISRYNAKNTVYLQRNSLKPGDTAVYYCAVTDRIYYYFVYWGQGTRVTVSS	high polyreactivity
QVQLQESGGGLVQAGGSLRLSCAASGTIFTARFMGWYRQAPGKERELVATITDGGNTNHADSVKGRFTISRDNAKNTVYLQMNSLKPEDAAVYYFAAGEVDNDTLLYWGQGSQVTVSS	low polyreactivity
QVQLQESGGGLVQAGGSLRLSCAASGTIFWLWAMGRYCQAPGQDRELVASISSGGTTYHADSVKGRFTISRDKAKNPVYRQMNSVKPEDTAVYYRAAFYVATAKLGYWGQGSQVTVSS	low polyreactivity
QVQLQESGGGLVQAGGSLRLSCAASGTIFYKDDMGWYRQAPGKEREFVAGIDRGGTTNCAGSVKGRFTISRDNAKNTVYLQMISLKPEDTAVYYCAAYYPDIYPFIYRGQGTQVTVSS	high polyreactivity
QVQLQESGGGLVQAGGSLRLSCAASGTILYSLGMGWYRQAPGKRREFVASITWGTTTNYAESVKGRFTISRDNAKNTVYPQMNSLKPEDTAVYDCAAPPFGDSSYHYWGQGTQVTVSS	low polyreactivity
QVQLQESGGGLVQAGGSLRLSCAASGTISDRAGMGWYRQAPAKNAIVATIDRGTNTNYADSVKGRFTISRDNAKNTVYLQMNSLKPEDTAVYNCAAVGRYYIYLDYWGQGTQVTVSS	low polyreactivity
QVQLQESGGGLVQAGGSLRLSCAASGTISPLPAMGWYRQAPGKEREFVAGIDTGAITNYADSVKGRFTISRDNAKNTVYLQMNSLKPEDTAVYYCAVFQAAYDYYERYYTYWGQGTQVTVSS	low polyreactivity
QVQLQESGGGLVQAGGSLRLSCAASGTISPLPAMGWYRQAPGKEREFVPGIDTGAITNYADSVKGRFTISRDNAKNTVYLQMNSLKPEDTAVYYCAVFPAAYDYYERYYTYWGQGTQVTVSS	low polyreactivity
QVQLQESGGGLVQAGGSLRLSCAASGTISTDSYMGWYRQAPGKERKFVASIGYGGITYYADSVKGRSTISRDSAKNTVYLQMNSLKPEDTAVYYCAVNSYYPDHYWYWGRGTQVTVSS	high polyreactivity
QVQLQESGGGLVQAGGSLRLSCAASGTISTDSYMGWYRQAPGKESKFVATIGYGGITYYADSVKGRSTISRDSAKNTVYLQMNILKPEDTAVYYCAVNSYYPDHYWYWGRGTQVTVSS	high polyreactivity
QVQLQESGGGLVQAGGSLRLSCAASGTISVHASMGWYRQAPGKERELVAGITDGANTYYADSVKGRFTISRDNSKNTVYLQMNSLIPEDTAVYYCAAYYGTEVHFTYWGQGTQVTVSS	low polyreactivity
QVQLQESGGGLVQAGGSLRLSCAASGTITVLYKMGWFRQAPGKEREFVASINYGTRTYYADSVKGRFTVSRDSAKNTVYLQMNSLKPEDTAVYYCAAAYRWQDVYRYWGQGTQVTVSS	low polyreactivity
QVQLQESGGGLVQAGGSLRLSCAASGTITVLYKMGWFRQAPGKEREFVASINYGTSTYYADSVKGRFTVSRDSAKNTVYLQMNCLKPEDTAVYYFAAAYRWQDVYRYWGQGTQVTVSS	low polyreactivity
QVQLQESGGGLVQAGGSLRLSCAASGYIFPRIYMGWYRQAPGKEREFDAGISYDAITNYADSVKGRFTISLDNAKNTVYLQMNSLKPEDTAVYYCAVSYYGTPLFTYWGQGTQVTVSS	high polyreactivity
QVQLQESGGGLVQAGGSLRLSCAASGYISHADEMGWYRQAPGKEHELVASISNGGSTNYADSVKGRFTISRDNAKNTLYLQMNSLKSEDTAVNYCAAWTGQVDIHYYWGHGTQVTVSS	low polyreactivity
QVQLQESGGGLVQAGGSLRLSCAASGYISIGRRMGWYRQAPGKERELVAGINGGGSTNYADSVKGRSTISRDNAKNTVYLQMNSLKPEDTAVYYCAAYVYDYDWYKYWGQGTQVTVSS	high polyreactivity
QVQLQESGGGLVQAGGSLRLSCASSGSIFWVWRMGWYCQAPGKEREFVAGIGLGATTNYADSVKGRFTISRDNAKNTVYLQMNSLKPGDTAVYYCATVGYYKGNQVLPAKDGDSWGQGTQVTVSS	high polyreactivity
QVQLQESGGGLVQAGGSLRLSCPSSGNISIKLQMGWYRQAPGKERELVATINLGAITYYADSVKGLITISRDNAKNTVYLQVNSLKPEDTAVYYCNAQSRTWRKLGYWGQGTQVTVSS	low polyreactivity
QVQLQESGGGLVQAGGSLRLSCSATGTIFTDRFMGWYRQAPGKERELVAGISPGTSTNYADSVKGRFTISRDNAKNTVYLQMNSLKPEDTAVYYCAADWSTGNTLPYWGQGTQVTVSS	high polyreactivity
QVQLQESGGGLVQAGGSLRLSSAASGTITVLYKMGWFRQPPGKQREFVASINYGTSTYYADSVKGRFTVSRDSAKKTVSLQMNSLKPEDTAVYYCAAAYRWQDVYRYWGQGTQVTVSS	low polyreactivity
QVQLQESGGGLVQAGGSLRLTCAASGSIFLNSEMGWYRQAPGKERELVAAIATGTSTNYADSVKGRFTISRDNAKNTVYLQMNSLKPEDTAVYYCATYHYWGQGTQVTVSS	low polyreactivity
